The nature of the data set: label from the status in PepcDB records.
Regarding “MSAVATFSVALANEVATVRLMAEVALLIGPGDVVTLSGDLGAGKTAAARAMIRYLADDDALEVPSPTFTLVQTYDLPPYPLLHADLYRVEDPSELEEIGLSPLPDGTVALIEWPERAGAALPEDRIDIALSHRPALGPSARAAEITGHGKAVKQVERLAALRSFIETAGYADAERRHMPGDASTRSYARLQRGAESVILMNAPRRPDGPALYAGKSYSAAVHLAEDVRPFVAIGQGLRERGFSAPAIHHADLDAGFLITEDLGRIGFVEGDPPAPVVARYQAATDMLAALHAKPLPDHLPLSTRESYAVPTFDEAAMMIEVGLMPEWYLPDRGAPPSEALRVEFVALWRKLLAGIATAPRTWVLRDYHSPNLIWLEDRPGIERVGVIDFQDTVLGPAAYDVVSLLQDARIDVPEAAELSLLGRYVKARLAADPEFDAPGFARLYAVMSAQRNTRLLGTFARLNRRDGKPQYLKHQPRVWAYLARSLAHPALAEVRAWYRDHVPPPL”, the protein production result was “failed”.

For “MKRKTAVKWLAVLAGAGLLYWGNKTYLNVSPKEIRVWVLSFGVFAPLMFIGISIVRPLVLFPVSVISIAGGLAFGPLLGTLYTLFGSMCASAVSFFAAGLFSAKKNGHYERLEAIQKQMEDNGFFYIFLLRILPINFDFVSYAAGLSNVKALPYFAATAVGIIPGTIALNVLGASFLAGNLPAFFMVLALYIVFISLPFIFRKKMQNLFQESN”, the protein production result was “failed”.

In the case of “SDMVAQALELSRKPHVVIATPGRLADHLRSSNTFSIKKIRFLVMDEADRLLEQGCTDFTVDLEAILAAVPARRQTLLFSATLTDTLRELQGLATNQPFFWEAQAPVSTVEQLDQRYLLVPEKVKDAYLVHLIQRFQDEHEDWSIIIFTNTCKTCQILCMMLRKFSFPTVALHSMMKQKERFAALAKFKSSIYRILIATDVASRGADQPPLPPGAWTSLRYRWSSTTTPPGSPRSTSTESAGRPVQGGRVRPSRW”, the protein production entry is recorded as “not failed”.

With “MEYSTDLGRRVLLTLAGVALLLVVGLVLSQFLPTLVFTVFLYYASRPIYRRLGRLPLPKSFLKRAVPYQKQVHAAATIFFFLLPFVVLVGYTLVLVIPELQSFFGEGGLGAAYLSQFQELQGGSPPGPLADLGFSEVLAMGPAEVIDLLRNATVQSWLGRVSDTLIGSLSLLTSLLLRVFIMFAGTYYLLTDGPRLVGWFLDTFDGSGVLREYAAAVDEELSSILFGNILNALVTGVIGIFVFSLYNLVAPGSVQIPFAPLVGALTGIGSLIPVVGMKIVYLPVAVLLAVSAVVTGQTAALAWVALFLVVTLVVVDTIPDFLIRPYVSGDLTHVGLLMFAYILGPIAFGFYGIFLGPMLLVLAAQFFRIIVPYIITGTVETTQTSLSEYDSGES”, the protein production result is given as “failed”.

On to “MSGTKLEDSPPCRNWSSASELNETQEPFLNPTDYDDEEFLRYLWREYLHPKEYEWVLIAGYIIVFVVALIGNVLVCVAVWKNHHMRTVTNYFIVNLSLADVLVTITCLPATLVVDITETWFFGQSLCKVIPYLQTVSVSVSVLTLSCIALDRWYAICHPLMFKSTAKRARNSIVIIWIVSCIIMIPQAIVMECSTVFPGLANKTTLFTVCDERWGGEIYPKMYHICFFLVTYMAPLCLMVLAYLQIFRKLWCRQIPGTSSVVQRKWKPLQPVSQPRGPGQPTKSRMSAVAAEIKQIRARRKTARMLMVVLLVFAICYLPISILNVLKRVFGMFAHTEDRETVYAWFTFSHWLVYANSAANPIIYNFLSGKFREEFKAAFSCCCLGVHHRQEDRLTRGRTSTESRKSLTTQISNFDNISKLSEQVVLTSISTLPAANGAGPLQNW”, for which the protein production entry was “failed”.

Take “MIKSILDYLLTLHPVLLGLLGSTFTWFTTAFGAAAVFFFRKVDNKIMDAMLGFSAGIMIAASFFSLIQPAIERAEELGYITWVPAVFGFLVGAFFIYIVDVFVPDLDKLTFIDEDLTKHGKKDFLLFTAVTLHNFPEGLAVGVAFGALASNPDIQTLVGAMLLTLGIGIQNIPEGAAISLPLRRGNVALAKCFNYGQMSGLVEIVGGLMGAYAVYSFTRILPFALAFSAGAMIYVSIEQLIPEAKRKDIDNKVPSIFGVIGFTLMMFLDVSLG”: the protein production entry is recorded as “failed”.

For the sequence “MLFTQALLVTLVGIIATIDYNGPLFMIHRPLVTSAMVGLVLGDFTQGVLIGSALELTWLGVTGIGGYTPPDTISGAIIGTAFGILSGQGETAGIAIAVPIAVATQQLDVLAKTLDVYFVKKADNDAKNGDYSKIGFYHYSSLVLITLFKIVPIFLAIMLGGEYVADLFAKVPPIVMQGLNSAGALLPSIGFGMLLNMMLKKNMWVFLLIGFICSVYGGMSTIGISLVGIAVAYFYDMIGSKPQETTSSSDVEEDLDL”, the protein production entry was “failed”.

Turning to “MSLDKKLMPVPDGHPDVFDREWPLRVGDIDRAGRLRLDAACRHIQDIGQDQLREMGFEETHPLWIVRRTMVDLIRPIEFGDMLRCRRWCSGTSNRWCEMRVRVDGRKGGLIESEAFWIHVNRETEMPARIADDFLAGLHRTTSVDRLRWKGYLKPGSRDDASEIHEFPVRVTDIDLFDHMNNAVYWSVIEDYLASHAELLRGPLRVTIEHEAPVALGDKLEIISHVHPAGSTEIFGPGLVDRAVTTLTYVVGDEPKAVASLFNL”, the protein production entry is “failed”.

For “MMCAARNTMSSSGSSPSGSDLQAFVMEFIITGFLMLVVCAVTTTKRTTEELEGLIIGATVTLNVIFVGEVSGASMNPARSIGPALVWGCYKGIWIYLLAPTLGAVSRALIHKMLPSIPNAEPKFSKTGSSHKRVSDLPL”, the protein production entry is recorded as “failed”.

As for “MDYLVKALAYDGKVRAYAARTTDMVNEGQRRHGTWPTASAALGRTMTASLMLGAMLKGDDKLTVKIEGGGPIGAIVADANAKGEVRAYVSNPQVHFDLNEQGKLDVRRAVGTNGTLSVVKDLGLREFFTGQVEIVSGELGDDFTYYLVSSEQVPSSVGVGVLVNPDNTILAAGGFIIQLMPGTDDETITKIEQRLSQVEPISKLIQKGLTPEEILEEVLGEKPEILETMPVRFHCPCSKERFETAILGLGKKEIQDMIEEDGQAEAVCHFCNEKYLFTKEELEGLRDQTTR”, the protein production result was “not failed”.

On to “MQNELQKYDDTINIAFFGLDRRQKTDISRSDSIMILTMDPTHKKLKLSSIMRDTYVNVDGHGMTKITHAYAYGGPQLAIKTINENFNLNIKDYVTVDFYGLEKIIDKLNGVEVDVQPDEVNYLNSYIDEVSKYEKVTPNHVSSAGKQLLDGRQAVAYSRIRYTAGGDFQRTERQRTVLMAVFNKMKAQGKSNMLSMMDELLPYAETDLGSLDIAKYGAKFLSSNIDSIDQERFPVDGYCSGITVDNVWYLKTDLGVTSDQMKKYIFEDVKPTPKASLVNIPAKLEHHHHHH”, for which the protein production entry is reported as “not failed”.

As to “MAKTLNSICFTTLLLVLLFISAEIPTAEANCDTYLGEVTVYYPCRERDCEAQCYEHYPHSCKGECEHHDHVVHHDNEEEHCHCYGR”, the protein production result is given as “failed”.

In the case of “MFESAEVGHSIDKDTYEKAVIELREALLEAQFELKQQARFPVIILINGIEGAGKGETVKLLNEWMDPRLIEVQSFLRPSDEELERPPQWRFWRRLPPKGRTGIFFGNWYSQMLYARVEGHIKEAKLDQAIDAAERFERMLCDEGALLFKFWFHLSKKQLKERLKALEKDPQHSWKLSPLDWKQSEVYDRFVHYGERVLRRTSRDYAPWYVVEGADERYRALTVGRILLEGLQAALATKERAKRQPHAAPLVSSLDNRGLLDSLDLGQYLDKDAYKEQLAAEQARLAGLIRDKRFRQHSLVAVFEGNDAAGKGGAIRRVTDALDPRQYHIVPIAAPTEEERAQPYLWRFWRHIPARRQFTIFDRSWYGRVLVERIEGFCAPADWLRAYGEINDFEEQLSEYGIIVVKFWLAIDKQTQMERFKEREKTPYKRYKITEEDWRNRDKWDQYVDAVGDMVDRTSTEIAPWTLVEANDKRFARVKVLRTINDAIEAAYKKDK”, the protein production result is listed as “not failed”.

Values taken from a protein production outcome set (Wang et al. 2014).
